Data published in publication PMC7181328 (ACS Central Science, 2020).
Where a chain is given by its changes, count along the chain named.

B1: PSMA2 subunit of the human 20S proteasome (natural protein, human (HEK293 cells), UniProt P25787 2-234, looked up)
chain: AERGYSFSLTTFSPSGKLVQIEYALAAVAGGAPSVGIKAANGVVLATEKKQKSILYDERSVHKVEPITKHIGLVYSGMGPDYRVLVHRARKLAQQYYLVYQEPIPTAQLVQRVASVMQEYTQSGGVRPFGVSLLICGWNEGRPYLFQSDPSGAYFAWKATAMGKNYVNGKTFLEKRYNEDLELEDAIHTAILTLKESFEGQMTEDNIEVGICNEAGFRRLTPTEVKDYLAAIA
modifications: N-terminal acetylation
B2: PSMA2 subunit of the rat 20S proteasome (natural protein, rat (Rattus norvegicus), UniProt P17220 2-234, looked up)
chain: B1 chain with K226R
modifications: N-terminal acetylation
B3: β7 ring of the yeast (Saccharomyces cerevisiae) 20S proteasome (complex)
chain 1: QFNPYGDNGGTILGIAGEDFAVLAGDTRNITDYSINSRYEPKVFDCGDNIVMSANGFAADGDALVKRFKNSVKWYHFDHNDKKLSINSAARNIQHLLYGKRFFPYYVHTIIAGLDEDGKGAVYSFDPVGSYEREQCRAGGAAASLIMPFLDNQVNFKNQYEPGTNGKVKKPLKYLSVEEVIKLVRDSFTSATERHIQVGDGLEILIVTKDGVRKEFYELKRD
chain 2: MDIILGIRVQDSVILASSKAVTRGISVLKDSDDKTRQLSPHTLMSFAGEAGDTVQFAEYIQANIQLYSIREDYELSPQAVSSFVRQELAKSIRSRRPYQVNVLIGGYDKKKNKPELYQIDYLGTKVELPYGAHGYSGFYTFSLLDHHYRPDMTTEEGLDLLKLCVQELEKRMPMDFKGVIVKIVDKDGIRQVDDFQAQ
chain 3: SDPSSINGGIVVAMTGKDCVAIACDLRLGSQSLGVSNKFEKIFHYGHVFLGITGLATDVTTLNEMFRYKTNLYKLKEERAIEPETFTQLVSSSLYERRFGPYFVGPVVAGINSKSGKPFIAGFDLIGCIDEAKDFIVSGTASDQLFGMCESLYEPNLEPEDLFETISQALLNAADRDALSGWGAVVYIIKKDEVVKRYLKMRQD
chain 4: TQQPIVTGTSVISMKYDNGVIIAADNLGSYGSLLRFNGVERLIPVGDNTVVGISGDISDMQHIERLLKDLVTENAYDNPLADAEEALEPSYIFEYLATVMYQRRSKMNPLWNAIIVAGVQSNGDQFLRYVNLLGVTYSSPTLATGFGAHMANPLLRKVVDRESDIPKTTVQVAEEAIVNAMRVLYYRDARSSRNFSLAIIDKNTGLTFKKNLQVENMKWDFAKDIKGYGTQKI
chain 5: TTTLAFRFQGGIIVAVDSRATAGNWVASQTVKKVIEINPFLLGTMAGGAADCQFWETWLGSQCRLHELREKERISVAAASKILSNLVYQYKGAGLSMGTMICGYTRKEGPTIYYVDSDGTRLKGDIFCVGSGQTFAYGVLDSNYKWDLSVEDALYLGKRSILAAAHRDAYSGGSVNLYHVTEDGWIYHGNHDVGELFWKVKEEEGSFNNVIG
chain 6: TSIMAVTFKDGVILGADSRTTTGAYIANRVTDKLTRVHDKIWCCRSGSAADTQAIADIVQYHLELYTSQYGTPSTETAASVFKELCYENKDNLTAGIIVAGYDDKNKGEVYTIPLGGSVHKLPYAIAGSGSTFIYGYCDKNFRENMSKEETVDFIKHSLSQAIKWDGSSGGVIRMVVLTAAGVERLIFYPDEYEQL
chain 7: TTIVGVKFNNGVVIAADTRSTQGPIVADKNCAKLHRISPKIWCAGAGTAADTEAVTQLIGSNIELHSLYTSREPRVVSALQMLKQHLFKYQGHIGAYLIVAGVDPTGSHLFSIHAHGSTDVGYYLSLGSGSLAAMAVLESHWKQDLTKEEAIKLASDAIQAGIWNDLGSGSNVDVCVMEIGKDAEYLRNYLTPNVREEKQKSYKFPRGTTAVLKESIVNICDIQEEQVDITA
modifications: N-terminal acetylation
B4: α-subunit of the archaeal (Thermoplasma acidophilum) 20S proteasome (natural protein)
chain: MQQGQMAYDRAITVFSPDGRLFQVEYAREAVKKGSTALGMKFANGVLLISDKKVRSRLIEQNSIEKIQLIDDYVAAVTSGLVADARVLVDFARISAQQEKVTYGSLVNIENLVKRVADQMQQYTQYGGVRPYGVSLIFAGIDQIGPRLFDCDPAGTINEYKATAIGSGKDAVVSFLEREYKENLPEKEAVTLGIKALKSSLEEGEELKAPEIASITVGNKYRIYDQEEVKKFL
B5: β7 ring of the rat 20S proteasome (complex, rat (Rattus norvegicus))
chain 1: RFSPYAFNGGTVLAIAGEDFSIVASDTRLSEGFSIHTRDSPKCYKLTDKTVIGCSGFHGDCLTLTKIIEARLKMYKHSNNKAMTTGAIAAMLSTILYSRRFFPYYVYNIIEGLDEEGKGAVYSFDPVGSYQRDSFKAGGSASAMLQPLLDNQVGFKNMQNVEHVPLTLDRAMRLVKDVFISAAERDVYTGDALRICIVTKEGIREETVPLRKD
chain 2: EYLIGIQGPDYVLVASDRVAASNIVQMKDDHDKMFKMSEKILLLCVGEAGDTVQFAEYIQKNVQLYKMRNGYELSPTAAANFTRRNLADCLRSRTPYHVNLLLAGYDEHEGPALYYMDYLAALAKAPFAAHGYGAFLTLSILDRYYTPTISRERAVELLRKCLEELQKRFILNLPTFSVRVIDKDGIHNLENITFTKRSS
chain 3: SVMSYNGGAVMAMKGKNCVAIAADRRFGIQAQMVTTDFQKIFPMGDRLYIGLAGLATDVQTVAQRLKFRLNLYELKEGRQIKPYTLMSMVANLLYEKRFGPYYTEPVIAGLDPKTFKPFICSLDLIGCPMVTDDFVVSGTCSEQMYGMCESLWEPNMDPEHLFETISQAMLNAVDRDAVSGMGVIVHIIEKDKITTRTLKARMD
chain 4: TQNPMVTGTSVLGVKFDCGVVIAADMLGSYGSLARFRNISRIMRVNDSTMLGASGDYADFQYLKQVLGQMVIDEELFGDGHSYSPRAIHSWLTRAMYSRRSKMNPLWNTKVIGGYAGGESFLGYVDMLGVAYEAPSLATGYGAYLAQPLLREVLEKQPVLSQTEARELVERCMRVLYYRDARSYNRFQVATVTEKGVEIEGPLSAQTNWDIAHMISGFE
chain 5: TTTLAFKFQHGVIVAADSRATAGPYIASQTVKKVIEINPYLLGTMAGGAADCSFWERLLARQCRIYELRNKERISVAAASKLLANMVYQYKGMGLSMGTMICGWDKRGPGLYYVDSEGNRISGTAFSVGSGSVYAFGVMDRGYSYDLQVEEAYDLARRAIYQATYRDAYSGGAVNLYHVREDGWIRVSSDNVADLHDKYTSSIP
chain 6: TTIMAVQFDGGVVLGADSRTTTGSYIANRVTDKLTPIHDHIFCCRSGSAADTQAVADAVTYQLGFHSIELNEPPLVHTAASLFKEMCYRYREDLMAGIIIAGWDPQEGGQVYSVPMGGMMVRQSFAIGGSGSSYIYGYVDATYREGMTKDECLQFTANALALAMERDGSSGGVIRLAAIQQSGVERQVLLGDQIPKVTISTLPPP
chain 7: TTIAGVVYKDGIVLGADTRATEGMVVADKNCSKIHFISPNIYCCGAGTAADTDMTTQLISSNLELHSLTTGRLPRVVTANRMLKQMLFRYQGYIGAALVLGGVDVTGPHLYSIYPHGSTDKLPYVTMGSGSLAAMAVFEDKFRPDMEEEEAKKLVSEAIAAGIFNDLGSGSNIDLCVISKSKLDFLRPYSVPNKKGTRFGRYRCEKGTTAVLTEKVTPLELEVLEEIVQTMDTS
modifications: N-terminal acetylation | N-terminal acetylation
B6: β-subunit of the archaeal (Thermoplasma acidophilum) 20S proteasome (natural protein, UniProt P28061 9-211, looked up)
chain: TTTVGITLKDAVIMATERRVTMENFIMHKNGKKLFQIDTYTGMTIAGLVGDAQVLVRYMKAELELYRLQRRVNMPIEAVATLLSNMLNQVKYMPYMVQLLVGGIDTAPHVFSIDAAGGSVEDIYASTGSGSPFVYGVLESQYSEKMTVDEGVDLVIRAISAAKQRDSASGGMIDVAVITRKDGYVQLPTDQIESRIRKLGLIL

Key:
[1] = molecular target: PSMA6 subunit of the human 20S proteasome (human (HEK293 cells), UniProt P60900 2-246, N-terminal acetylation); assay: native MS; SID-IM-MS on a Synapt G2 with SID device: two most intense charge states isolated, surface-induced dissociation at 150 V, subcomplexes separated by ion mobility; charge reduced with TEAA (0.1/0.9 TEAA/ammonium acetate, v/v); conditions: both partners purified
Chain of PSMA6 subunit of the human 20S proteasome (P60900 2-246): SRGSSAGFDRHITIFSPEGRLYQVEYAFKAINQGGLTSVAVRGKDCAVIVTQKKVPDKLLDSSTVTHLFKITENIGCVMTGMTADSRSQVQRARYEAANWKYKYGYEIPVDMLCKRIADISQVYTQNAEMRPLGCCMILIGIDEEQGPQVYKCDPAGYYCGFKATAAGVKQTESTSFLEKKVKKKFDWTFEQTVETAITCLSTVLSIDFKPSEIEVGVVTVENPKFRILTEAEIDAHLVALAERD

[2] = molecular target: PSMA6 subunit of the rat 20S proteasome (rat (Rattus norvegicus), UniProt P60901 2-246, N-terminal acetylation); assay: as above; conditions: both partners purified
Chain of PSMA6 subunit of the rat 20S proteasome (P60901 2-246): as the sequence (P60900 2-246) above

[3] = molecular target: α7 ring of the yeast (Saccharomyces cerevisiae) 20S proteasome (yeast (Saccharomyces cerevisiae), UniProt P40302 1-234; P23639 2-250; P21242 1-288; P23638 2-258; P32379 1-260; P21243 …, N-terminal acetylation | N-terminal acetylation | N-terminal acetylation | N-terminal acetylation | N-terminal acetylation | N-terminal acetylation); assay: native MS; intact 20S proteasomes, native IM-MS on a modified Synapt G1; 150 mM ammonium acetate, pH 7, ~3 uM; conditions: both partners purified
[4] = molecular target: the molecule itself; assay: native MS; SID-IM-MS on a Synapt G2 with SID device: two most intense charge states isolated, surface-induced dissociation at 150 V, subcomplexes separated by ion mobility; charge reduced with TEAA (0.1/0.9 TEAA/ammonium acetate, v/v)
[5] = molecular target: B4; assay: as above; conditions: both partners purified

Binder	binding result [4]	further results
B1		binding result [1]: binds
B2		binding result [2]: binds
B3	binds	binding result [3]: binds
B4	binds	
B5	binds	
B6	binds	binding result [5]: binds
